This assay concerns the target N-Ras蛋白 (UniProt P01111). The assay is described as follows: indirect ELISA; N-Ras coated at 5 ug/ml, fusion protein diluted 1:100 to 1:3200, anti-His-tag antibody then HRP goat anti-mouse IgG, OD450. As to conditions: scale: dilution factor. In general terms: An ELISA detects its analyte on a solid surface through an enzyme-linked reagent.
UniProt P01111, sequence (P01111 whole entry, the tested form may be a part): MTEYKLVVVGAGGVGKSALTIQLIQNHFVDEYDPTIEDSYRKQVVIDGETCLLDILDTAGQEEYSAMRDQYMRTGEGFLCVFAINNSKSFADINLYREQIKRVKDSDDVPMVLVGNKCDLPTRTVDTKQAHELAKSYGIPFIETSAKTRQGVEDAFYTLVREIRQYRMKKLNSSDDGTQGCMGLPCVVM

B1: BR2-抗p21Ras单链抗体融合蛋白 (scFv, V domains shown, not shown: small tags and cut ends)
VH: QVKLQESGEGLVKPGGSLKLSCAASGFTFSDYYMYWVRQTPEKRLEWVAIISDGGSYTYYPDSVKGRFTISRDNTKKNLYLQMSSLRSEDTAMYYCARDPHYSGSSRLFVNWGQGTTVTVSS
As for B1, the 结合效价 (ELISA titer) turned out to be 800.
